Substitutions are numbered along the chain they refer to. Numbers in names are those of the source. One block for each binder: values may come before it.
What was measured:
[1] = molecular target: T1, Recombinant Human DLL4 (R&D Systems Cat#1506-D4/CF) (human, UniProt Q9NR61 27-524); assay: ECL (Meso Scale Discovery) multispot binding assay, DLL4 immobilised, Fab at 100 nM
T1 construct: Bought recombinant protein; also called delta-like protein 4; Delta-like 4

[2] = molecular target: T2, Recombinant Human DLL4 (delta-like protein 4) (human, UniProt Q9NR61 27-524); assay: ELISA, DLL4 coated on plate, Fab at 50 nM (2-fold dilution series), absorbance at 450 nm
T2 construct: Bought recombinant human DLL4 coated on the ELISA plate; also called rHuman DLL4

[3] = molecular target: T2, Recombinant Human DLL4 (delta-like …); assay: ELISA, DLL4 coated on plate, Fab at 25 nM (2-fold dilution series), absorbance at 450 nm
[4] = molecular target: T2, Recombinant Human DLL4 (delta-like …); assay: ELISA, DLL4 coated on plate, Fab at 100 nM (2-fold dilution series), absorbance at 450 nm
[5] = molecular target: T2, Recombinant Human DLL4 (delta-like …); assay: ELISA, DLL4 coated on plate, Fab at 12.5 nM (2-fold dilution series), absorbance at 450 nm

ELISA signal [2]: 0.78
ELISA signal [3]: 0.58
ELISA signal [4]: 1.02
ELISA signal [5]: 0.43
B4: Fab VH5-51_IGHD5-18*01>3_IGHJ4*01 G100K/G104T G24T/S28R/G35V (KT TRV) & V3-4_IGLJ1*01 V91L/S96P S52L (Fab, V domains shown)
VH: EVQLVQSGAEVKKPGESLKISCKTSGYRFTSYWIVWVRQMPGKGLEWMGIIYPGDSDTRYSPSFQGQVTISADKSISTAYLQWSSLKASDTAMYYCARRKYSYTYDYFDYWGQGTLVTVSS
VL: QTVVTQEPSFSVSPGGTVTLTCGLSSGSVSTSYYPSWYQQTPGQAPRTLIYLTNTRSSGVPDRFSGSILGNKAALTITGAQADDESDYYCLLYMGPGISYVFGTGTKVTVL
notes: Fab; Expressed in E. coli with CH1 (plasmid A, His6 and Flag tags) and lambda CL (plasmid E); also called H:KT TRV & L:LP S52L

ELISA signal [2]: 1.02
ELISA signal [3]: 0.9
ELISA signal [4]: 1.14
ELISA signal [5]: 0.63
B5: Fab VH5-51_IGHD5-18*01>3_IGHJ4*01 G100K/G104T G24T/S28R/G35V (KT TRV) & V3-4_IGLJ1*01 V91L/S96P S52G (LP S52G) (Fab, V domains shown)
VH: B4 VH
VL: B4 VL with L52G
notes: Fab; Expressed in E. coli with CH1 (plasmid A, His6 and Flag tags) and lambda CL (plasmid E); also called H:KT TRV & L:LP S52G

ELISA signal [2]: 0.82
ELISA signal [3]: 0.6
ELISA signal [4]: 1.04
ELISA signal [5]: 0.4
B9: Fab VH5-51_IGHD5-18*01>3_IGHJ4*01 G100K/G104T G24A/S28R/G35V (KT ARV) & V3-4_IGLJ1*01 V91L/S96P S52I (Fab, V domains shown)
VH: B4 VH
VL: B4 VL with L52I
notes: Fab; Expressed in E. coli with CH1 (plasmid A, His6 and Flag tags) and lambda CL (plasmid E); also called G100K/G104T G24A/S28R/G35V & V91L/S96P S52I

ELISA signal [2]: 0.69
ELISA signal [3]: 0.49
ELISA signal [4]: 0.99
ELISA signal [5]: 0.42
B10: Fab VH5-51_IGHD5-18*01>3_IGHJ4*01 G100K/G104T G24L/S28R/G35V (KT LRV) & V3-4_IGLJ1*01 V91L/S96P S52F (Fab, V domains shown)
VH: B4 VH
VL: B4 VL with L52F
notes: Fab; Expressed in E. coli with CH1 (plasmid A, His6 and Flag tags) and lambda CL (plasmid E); also called G100K/G104T G24L/S28R/G35V & V91L/S96P S52F

ELISA signal [2]: 0.72
ELISA signal [3]: 0.56
ELISA signal [4]: 0.9
ELISA signal [5]: 0.41
B11: Fab VH5-51_IGHD5-18*01>3_IGHJ4*01 G100K/G104T G24T/S28R/G35V (KT TRV) & V3-4_IGLJ1*01 V91L/S96P S52Y (Fab, V domains shown)
VH: B4 VH
VL: B4 VL with L52Y
notes: Fab; Expressed in E. coli with CH1 (plasmid A, His6 and Flag tags) and lambda CL (plasmid E); also called H:KT TRV & L:LP S52Y

ELISA signal [2]: 0.8
ELISA signal [3]: 0.59
ELISA signal [4]: 1.01
ELISA signal [5]: 0.41
B13: Fab VH5-51_IGHD5-18*01>3_IGHJ4*01 G100K/G104T G24L/S28R/G35V (KT LRV) & V3-4_IGLJ1*01 V91L/S96P S52M (Fab, V domains shown)
VH: B4 VH
VL: B4 VL with L52M
notes: Fab; Expressed in E. coli with CH1 (plasmid A, His6 and Flag tags) and lambda CL (plasmid E); also called G100K/G104T G24L/S28R/G35V & V91L/S96P S52M

The next lines start with the binder.

B1: Fab VH5-51_IGHD5-18*01>3_IGHJ4*01 G100K/G104T (H:KT) & V3-4_IGLJ1*01 G23A (Fab, V domains shown)
VH: B4 VH with T24G, R28S, V35G
VL: B4 VL with G23A, L52S, L91V, P96S
notes: Fab expressed in E. coli; Plasmid A adds CH1 with His6 and Flag tags to the heavy chain; Plasmid E adds lambda CL to the light chain; also called G100K/G104T & G23A
ECL signal [1]: 13500

B2: Fab VH5-51_IGHD5-18*01>3_IGHJ4*01 G100K/G104T G24T/S28R/G35V (KT TRV) & V3-4_IGLJ1*01 (wildtype) (Fab, V domains shown)
VH: B4 VH
VL: B4 VL with L52S, L91V, P96S
notes: Fab; Expressed in E. coli with CH1 (plasmid A, His6 and Flag tags) and lambda CL (plasmid E); also called H:KT TRV & L:wt
ELISA signal [2]: 0.32
ELISA signal [3]: 0.26
ELISA signal [4]: 0.45
ELISA signal [5]: 0.23

B3: Fab VH5-51_IGHD5-18*01>3_IGHJ4*01 G100K/G104T (H:KT) & V3-4_IGLJ1*01 G27A (Fab, V domains shown)
VH: B4 VH with T24G, R28S, V35G
VL: B4 VL with G27A, L52S, L91V, P96S
notes: Fab expressed in E. coli; Plasmid A adds CH1 with His6 and Flag tags to the heavy chain; Plasmid E adds lambda CL to the light chain; also called G100K/G104T & G27A
ECL signal [1]: 10700

B6: Fab VH5-51_IGHD5-18*01>3_IGHJ4*01 G100K/G104T (H:KT) & V3-4_IGLJ1*01 S32A (Fab, V domains shown)
VH: B4 VH with T24G, R28S, V35G
VL: B4 VL with S32A, L52S, L91V, P96S
notes: Fab expressed in E. coli; Plasmid A adds CH1 with His6 and Flag tags to the heavy chain; Plasmid E adds lambda CL to the light chain; also called G100K/G104T & S32A
ECL signal [1]: 10400

B7: Fab VH5-51_IGHD5-18*01>3_IGHJ4*01 G100K/G104T (H:KT) & V3-4_IGLJ1*01 P35A (Fab, V domains shown)
VH: B4 VH with T24G, R28S, V35G
VL: B4 VL with P35A, L52S, L91V, P96S
notes: Fab expressed in E. coli; Plasmid A adds CH1 with His6 and Flag tags to the heavy chain; Plasmid E adds lambda CL to the light chain; also called G100K/G104T & P35A
ECL signal [1]: 8260

B8: Fab VH5-51_IGHD5-18*01>3_IGHJ4*01 & V3-4_IGLJ1*01 (parental, wildtype) (Fab, V domains shown)
VH: B4 VH with T24G, R28S, V35G, K100G, T104G
VL: B4 VL with L52S, L91V, P96S
notes: Fab; Expressed in E. coli with CH1 (plasmid A, His6 and Flag tags) and lambda CL (plasmid E); also called Wildtype & Wildtype; parent Hit Fab
ELISA signal [2]: 0.16
ELISA signal [3]: 0.18
ELISA signal [4]: 0.17
ELISA signal [5]: 0.17

B12: Fab VH5-51_IGHD5-18*01>3_IGHJ4*01 G100K/G104T G24A/S28R/G35V (KT ARV) & V3-4_IGLJ1*01 V91L/S96P S52H (Fab, V domains shown)
VH: B4 VH
VL: B4 VL with L52H
notes: Fab; Expressed in E. coli with CH1 (plasmid A, His6 and Flag tags) and lambda CL (plasmid E); Fab H:KT TRV & L:LP S52H; also called G100K/G104T G24A/S28R/G35V & V91L/S96P S52H
ELISA signal [2]: 0.91
ELISA signal [3]: 0.73
ELISA signal [4]: 1.09
ELISA signal [5]: 0.5

B14: Fab VH5-51_IGHD5-18*01>3_IGHJ4*01 G100K/G104T (KT) & V3-4_IGLJ1*01 (wildtype) (Fab, V domains shown)
VH: B4 VH with T24G, R28S, V35G
VL: B4 VL with L52S, L91V, P96S
notes: Fab; Expressed in E. coli with CH1 (plasmid A, His6 and Flag tags) and lambda CL (plasmid E); also called H:KT & L:wt; KT double mutant
ELISA signal [2]: 0.18
ELISA signal [3]: 0.16
ELISA signal [4]: 0.18
ELISA signal [5]: 0.18

B15: Fab VH5-51_IGHD5-18*01>3_IGHJ4*01 G100K/G104T (H:KT) & V3-4_IGLJ1*01 S28A (Fab, V domains shown)
VH: B4 VH with T24G, R28S, V35G
VL: B4 VL with S28A, L52S, L91V, P96S
notes: Fab expressed in E. coli; Plasmid A adds CH1 with His6 and Flag tags to the heavy chain; Plasmid E adds lambda CL to the light chain; also called G100K/G104T & S28A (light chain)
ECL signal [1]: 11500

B16: Fab VH5-51_IGHD5-18*01>3_IGHJ4*01 G100K/G104T (H:KT) & V3-4_IGLJ1*01 S36A (Fab, V domains shown)
VH: B4 VH with T24G, R28S, V35G
VL: B4 VL with S36A, L52S, L91V, P96S
notes: Fab expressed in E. coli; Plasmid A adds CH1 with His6 and Flag tags to the heavy chain; Plasmid E adds lambda CL to the light chain; also called G100K/G104T & S36A
ECL signal [1]: 9690
